Biological target: T1, 重组人IL-5蛋白 (recombinant Human IL-5, R&D Systems 205-IL-005) (human, UniProt P05113 20-134)
T1 construct: Bought protein; also called 重组human IL-5; His-tag重组human IL-5
T1 sequence (looked up): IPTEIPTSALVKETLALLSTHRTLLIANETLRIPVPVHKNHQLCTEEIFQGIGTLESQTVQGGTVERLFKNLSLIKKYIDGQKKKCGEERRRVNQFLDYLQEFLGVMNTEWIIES
Test: BLI (Probe Life Gator), antibody 2 μg/mL on proA probe, recombinant human IL-5 at 150 nM and 70 nM

B1: 兔单克隆抗体16D2 (anti-human IL-5 rabbit monoclonal antibody 16D2) (antibody, V domains shown)
VH: QEQLEESGGDLVKPEGSLTLTCTASGFSFSINYWICWVRQAPGKGLEWIACIYGGSSGSAYYATWAKGRFTISKTSSTTVTLQMTSLTAADTATYFCARDDEGGGIFYNLWGPGTLVTVSS
VL: AYDMTQTPSSASEPVGGTVTIKCQASEDIYNLLAWYQQKPGQPPKLLIYSASTLASGVPSRFKGSGSGTEYTLTISDLECADAATYYCEQHYTPSNVHNTFGGGTEVVVKG
notes: also called 16D2抗体; 抗人IL-5兔单克隆抗体16D2
Question: Which Kd does the source give for B1 here?
Answer: 4.03 nM

B2: 兔单克隆抗体24A10 (anti-human IL-5 rabbit monoclonal antibody 24A10) (antibody, V domains shown)
VH: QSLEESGGGLVQPEGSLTLTCTASGFSFSSSYYMCWVRQAPGKGLEWIGCIAAGSSGISYYASWAKGRFTISKTSSTTVTLQMTGLTAADTATYLCSRSCDIYSDGGTSFDLWGPGTLVTVSS
VL: DVVMTQTPASVSEPVGGTVTIKCQASQSISSYLAWYQQKPGQPPKLLIYEASKLASGVPSRFKGSGSGTEFTLTISDLECADAATYYCESNYDITSSYFGGGTEVVVKG
notes: in the BLI assays it was unlabelled; also called 24A10抗体; 人IL-5兔单克隆抗体24A10
Question: For B2, which Kd is on record?
Answer: 0.306 nM
